Paper PMC7774954, “Interactomic affinity profiling by holdup assay: Acetylation and distal residues impact the PDZome-binding specificity of PTEN phosphatase” (PLoS ONE, 2020)
Values belong to the substance of their own block, whether it stands above or below them.

Assays:
[1] = target: fRSK1, fluorescein-labelled RSK1 PBM peptide; assay: fluorescence polarisation; direct: N-terminally fluorescein-labelled PBM peptide (tracer) with increasing amounts of MBP-PDZ; 384-well plates; triplicate; direct binding model (ProFit)
PTEN_Ac (human) = PTEN_Ac (human) (UniProt P60484); assay: holdup assay; biotinylated PBM peptide saturating streptavidin resin (biotin resin as reference); tag-PDZ at 4 uM in crude E. coli lysate, 15 min, filtration, free tag-PDZ by capillary electrophoresis; singlicate; BI cut-off 0.20; BI converted into KD with the peptide concentration back-calculated from FP
PTEN_11 (human) = PTEN_11 (human) (UniProt P60484); assay: as above
PTEN_KR (human) = PTEN_KR (human) (UniProt P60484); assay: as above
[2] = target: f16E6, fluorescein-labelled HPV16 E6 PBM peptide (HPV16); assay: fluorescence polarisation; direct: N-terminally fluorescein-labelled PBM peptide (tracer) with increasing amounts of MBP-PDZ; 384-well plates; triplicate; direct binding model (ProFit)
SNX27-1 (human) = assay: fluorescence polarisation; competitive: 50 nM fluorescent tracer peptide pre-formed with the PDZ domain (>60-80% complex), unlabeled peptide added at 8 concentrations; 20 mM HEPES pH 7.5, 150 mM NaCl, 0.5 mM TCEP, 0.01% Tween 20; triplicate; apparent
[3] = target: ARHGEF12-1, PDZ domain of ARHGEF12 (human) (UniProt Q9NZN5); assay: fluorescence polarisation; competitive: pre-formed complex of PDZ domain (>60-80% complex) and 50 nM fluorescent tracer peptide, increasing amount of unlabeled PTEN peptide (8 concentrations); 20 mM HEPES pH 7.5, 150 mM NaCl, 0.5 mM TCEP, 0.01% Tween 20; triplicate; competitive binding model (ProFit); apparent
[4] = target: GOPC-1, PDZ domain of GOPC (human) (UniProt Q9HD26); assay: as above
[5] = target: MAST1-1, PDZ domain of MAST1 (human) (UniProt Q9Y2H9); assay: as above
[6] = target: SNTA1-1, PDZ domain of SNTA1 (human) (UniProt Q13424); assay: as above
[7] = target: SNTB1-1, PDZ domain of SNTB1 (human) (UniProt Q13884); assay: as above
[8] = target: SNX27-1, PDZ domain of SNX27 (human) (UniProt Q96L92); assay: as above
MAST1-1 (human) = assay: fluorescence polarisation; competitive: 50 nM fluorescent tracer peptide pre-formed with the PDZ domain (>60-80% complex), unlabeled peptide added at 8 concentrations; 20 mM HEPES pH 7.5, 150 mM NaCl, 0.5 mM TCEP, 0.01% Tween 20; triplicate; apparent
MAST2-1 (human) = assay: as above
[9] = target: GRID2IP-2, second PDZ domain of GRID2IP (human) (UniProt A4D2P6); assay: fluorescence polarisation; competitive: pre-formed complex of PDZ domain (>60-80% complex) and 50 nM fluorescent tracer peptide, increasing amount of unlabeled PTEN peptide (8 concentrations); 20 mM HEPES pH 7.5, 150 mM NaCl, 0.5 mM TCEP, 0.01% Tween 20; triplicate; competitive binding model (ProFit); apparent
[10] = target: HTRA1-1, PDZ domain of HTRA1 (human) (UniProt Q92743); assay: as above
[11] = target: MAST2-1, PDZ domain of MAST2 (human) (UniProt Q6P0Q8); assay: as above
[12] = target: SNTG2-1, PDZ domain of SNTG2 (human) (UniProt Q9NY99); assay: as above
[13] = target: fpRSK1, fluorescein-labelled phosphorylated RSK1 PBM peptide; assay: fluorescence polarisation; direct: N-terminally fluorescein-labelled PBM peptide (tracer) with increasing amounts of MBP-PDZ; 384-well plates; triplicate; direct binding model (ProFit)
PTEN_13 (human) = PTEN_13 (human) (UniProt P60484); assay: holdup assay; biotinylated PBM peptide saturating streptavidin resin (biotin resin as reference); tag-PDZ at 4 uM in crude E. coli lysate, 15 min, filtration, free tag-PDZ by capillary electrophoresis; singlicate; BI cut-off 0.20; BI converted into KD with the peptide concentration back-calculated from FP

HTRA1-1, PDZ domain of HTRA1 (human), sequence (Q92743 23-480): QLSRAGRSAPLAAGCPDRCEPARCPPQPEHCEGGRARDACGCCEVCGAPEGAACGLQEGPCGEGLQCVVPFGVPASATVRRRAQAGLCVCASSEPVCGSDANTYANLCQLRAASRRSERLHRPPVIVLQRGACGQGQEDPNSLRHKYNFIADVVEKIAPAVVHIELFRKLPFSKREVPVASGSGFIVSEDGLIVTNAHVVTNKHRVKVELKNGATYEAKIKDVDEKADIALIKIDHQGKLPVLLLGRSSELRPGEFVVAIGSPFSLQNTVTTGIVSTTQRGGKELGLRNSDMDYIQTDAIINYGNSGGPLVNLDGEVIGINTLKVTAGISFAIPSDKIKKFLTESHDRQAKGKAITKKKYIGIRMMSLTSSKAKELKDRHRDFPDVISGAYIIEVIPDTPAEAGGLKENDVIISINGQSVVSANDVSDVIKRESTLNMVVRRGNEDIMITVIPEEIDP
SNTB1-1, PDZ domain of SNTB1 (human), sequence (Q13884 whole entry, the tested form may be a part): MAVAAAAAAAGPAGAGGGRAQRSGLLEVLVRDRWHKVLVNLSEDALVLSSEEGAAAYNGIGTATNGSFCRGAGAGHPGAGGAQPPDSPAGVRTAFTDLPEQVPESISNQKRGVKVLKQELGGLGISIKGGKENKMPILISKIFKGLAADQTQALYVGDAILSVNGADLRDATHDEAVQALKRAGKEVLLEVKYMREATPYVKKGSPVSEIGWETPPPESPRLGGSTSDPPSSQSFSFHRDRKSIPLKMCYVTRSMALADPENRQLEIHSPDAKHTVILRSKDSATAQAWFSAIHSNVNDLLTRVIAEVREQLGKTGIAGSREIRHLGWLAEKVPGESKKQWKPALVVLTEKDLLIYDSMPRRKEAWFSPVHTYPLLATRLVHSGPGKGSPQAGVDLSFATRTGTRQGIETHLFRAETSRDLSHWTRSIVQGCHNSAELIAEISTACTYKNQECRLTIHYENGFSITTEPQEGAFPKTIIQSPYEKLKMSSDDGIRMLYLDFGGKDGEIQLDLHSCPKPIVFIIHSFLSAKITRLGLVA
SNTA1-1, PDZ domain of SNTA1 (human), sequence (Q13424 whole entry, the tested form may be a part): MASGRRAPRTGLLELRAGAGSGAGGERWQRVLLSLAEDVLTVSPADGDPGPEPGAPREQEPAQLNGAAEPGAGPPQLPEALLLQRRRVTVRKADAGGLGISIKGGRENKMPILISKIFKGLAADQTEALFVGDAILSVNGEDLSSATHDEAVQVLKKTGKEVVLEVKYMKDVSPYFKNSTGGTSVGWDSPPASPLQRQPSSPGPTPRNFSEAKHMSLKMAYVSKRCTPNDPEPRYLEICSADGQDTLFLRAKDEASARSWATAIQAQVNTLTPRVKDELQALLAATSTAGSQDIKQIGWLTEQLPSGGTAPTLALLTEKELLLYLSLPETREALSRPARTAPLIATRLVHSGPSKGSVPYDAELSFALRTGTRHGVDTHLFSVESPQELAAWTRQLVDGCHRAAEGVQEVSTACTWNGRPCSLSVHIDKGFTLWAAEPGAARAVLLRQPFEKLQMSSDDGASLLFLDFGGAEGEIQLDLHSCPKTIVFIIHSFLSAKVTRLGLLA
MAST1-1, PDZ domain of MAST1 (human), sequence (Q9Y2H9 whole entry, the tested form may be a part): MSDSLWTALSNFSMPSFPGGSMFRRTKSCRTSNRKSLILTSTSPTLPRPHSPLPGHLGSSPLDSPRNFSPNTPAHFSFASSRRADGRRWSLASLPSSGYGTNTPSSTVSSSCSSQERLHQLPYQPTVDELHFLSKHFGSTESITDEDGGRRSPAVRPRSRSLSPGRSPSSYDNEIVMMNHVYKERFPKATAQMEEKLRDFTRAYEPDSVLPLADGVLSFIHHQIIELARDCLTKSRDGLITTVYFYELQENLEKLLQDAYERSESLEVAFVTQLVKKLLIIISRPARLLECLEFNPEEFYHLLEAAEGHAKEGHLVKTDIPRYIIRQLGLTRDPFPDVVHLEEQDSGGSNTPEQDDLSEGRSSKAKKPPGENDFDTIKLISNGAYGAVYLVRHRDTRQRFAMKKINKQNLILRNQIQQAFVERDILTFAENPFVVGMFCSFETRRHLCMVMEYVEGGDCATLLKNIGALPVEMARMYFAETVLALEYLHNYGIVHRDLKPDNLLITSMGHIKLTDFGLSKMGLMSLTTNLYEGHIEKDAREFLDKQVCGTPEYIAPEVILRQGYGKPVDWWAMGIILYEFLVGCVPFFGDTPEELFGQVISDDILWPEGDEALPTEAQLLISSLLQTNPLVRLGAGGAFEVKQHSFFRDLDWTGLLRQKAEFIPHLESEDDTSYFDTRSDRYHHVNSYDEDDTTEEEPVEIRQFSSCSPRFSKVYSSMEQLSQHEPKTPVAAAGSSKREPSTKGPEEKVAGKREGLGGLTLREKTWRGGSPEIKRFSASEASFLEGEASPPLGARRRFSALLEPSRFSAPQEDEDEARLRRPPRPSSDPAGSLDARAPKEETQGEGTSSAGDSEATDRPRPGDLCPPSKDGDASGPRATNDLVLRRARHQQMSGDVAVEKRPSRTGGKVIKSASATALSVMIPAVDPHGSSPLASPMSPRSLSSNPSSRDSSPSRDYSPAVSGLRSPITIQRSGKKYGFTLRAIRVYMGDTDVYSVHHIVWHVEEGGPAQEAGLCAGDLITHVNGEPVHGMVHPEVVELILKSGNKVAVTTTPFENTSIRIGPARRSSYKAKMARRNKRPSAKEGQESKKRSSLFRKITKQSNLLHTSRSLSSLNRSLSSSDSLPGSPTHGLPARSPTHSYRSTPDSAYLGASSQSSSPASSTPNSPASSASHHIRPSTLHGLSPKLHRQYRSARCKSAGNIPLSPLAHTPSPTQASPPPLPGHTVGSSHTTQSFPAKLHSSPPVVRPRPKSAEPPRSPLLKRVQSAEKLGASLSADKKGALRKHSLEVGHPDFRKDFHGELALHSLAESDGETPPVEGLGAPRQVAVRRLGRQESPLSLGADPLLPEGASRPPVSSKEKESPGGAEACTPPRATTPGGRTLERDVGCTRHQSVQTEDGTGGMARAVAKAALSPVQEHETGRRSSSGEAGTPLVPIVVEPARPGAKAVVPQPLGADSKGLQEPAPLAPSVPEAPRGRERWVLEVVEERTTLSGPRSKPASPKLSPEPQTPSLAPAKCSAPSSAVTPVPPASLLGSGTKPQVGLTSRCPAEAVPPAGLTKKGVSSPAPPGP
MAST2-1, PDZ domain of MAST2 (human), sequence (Q6P0Q8 whole entry, the tested form may be a part): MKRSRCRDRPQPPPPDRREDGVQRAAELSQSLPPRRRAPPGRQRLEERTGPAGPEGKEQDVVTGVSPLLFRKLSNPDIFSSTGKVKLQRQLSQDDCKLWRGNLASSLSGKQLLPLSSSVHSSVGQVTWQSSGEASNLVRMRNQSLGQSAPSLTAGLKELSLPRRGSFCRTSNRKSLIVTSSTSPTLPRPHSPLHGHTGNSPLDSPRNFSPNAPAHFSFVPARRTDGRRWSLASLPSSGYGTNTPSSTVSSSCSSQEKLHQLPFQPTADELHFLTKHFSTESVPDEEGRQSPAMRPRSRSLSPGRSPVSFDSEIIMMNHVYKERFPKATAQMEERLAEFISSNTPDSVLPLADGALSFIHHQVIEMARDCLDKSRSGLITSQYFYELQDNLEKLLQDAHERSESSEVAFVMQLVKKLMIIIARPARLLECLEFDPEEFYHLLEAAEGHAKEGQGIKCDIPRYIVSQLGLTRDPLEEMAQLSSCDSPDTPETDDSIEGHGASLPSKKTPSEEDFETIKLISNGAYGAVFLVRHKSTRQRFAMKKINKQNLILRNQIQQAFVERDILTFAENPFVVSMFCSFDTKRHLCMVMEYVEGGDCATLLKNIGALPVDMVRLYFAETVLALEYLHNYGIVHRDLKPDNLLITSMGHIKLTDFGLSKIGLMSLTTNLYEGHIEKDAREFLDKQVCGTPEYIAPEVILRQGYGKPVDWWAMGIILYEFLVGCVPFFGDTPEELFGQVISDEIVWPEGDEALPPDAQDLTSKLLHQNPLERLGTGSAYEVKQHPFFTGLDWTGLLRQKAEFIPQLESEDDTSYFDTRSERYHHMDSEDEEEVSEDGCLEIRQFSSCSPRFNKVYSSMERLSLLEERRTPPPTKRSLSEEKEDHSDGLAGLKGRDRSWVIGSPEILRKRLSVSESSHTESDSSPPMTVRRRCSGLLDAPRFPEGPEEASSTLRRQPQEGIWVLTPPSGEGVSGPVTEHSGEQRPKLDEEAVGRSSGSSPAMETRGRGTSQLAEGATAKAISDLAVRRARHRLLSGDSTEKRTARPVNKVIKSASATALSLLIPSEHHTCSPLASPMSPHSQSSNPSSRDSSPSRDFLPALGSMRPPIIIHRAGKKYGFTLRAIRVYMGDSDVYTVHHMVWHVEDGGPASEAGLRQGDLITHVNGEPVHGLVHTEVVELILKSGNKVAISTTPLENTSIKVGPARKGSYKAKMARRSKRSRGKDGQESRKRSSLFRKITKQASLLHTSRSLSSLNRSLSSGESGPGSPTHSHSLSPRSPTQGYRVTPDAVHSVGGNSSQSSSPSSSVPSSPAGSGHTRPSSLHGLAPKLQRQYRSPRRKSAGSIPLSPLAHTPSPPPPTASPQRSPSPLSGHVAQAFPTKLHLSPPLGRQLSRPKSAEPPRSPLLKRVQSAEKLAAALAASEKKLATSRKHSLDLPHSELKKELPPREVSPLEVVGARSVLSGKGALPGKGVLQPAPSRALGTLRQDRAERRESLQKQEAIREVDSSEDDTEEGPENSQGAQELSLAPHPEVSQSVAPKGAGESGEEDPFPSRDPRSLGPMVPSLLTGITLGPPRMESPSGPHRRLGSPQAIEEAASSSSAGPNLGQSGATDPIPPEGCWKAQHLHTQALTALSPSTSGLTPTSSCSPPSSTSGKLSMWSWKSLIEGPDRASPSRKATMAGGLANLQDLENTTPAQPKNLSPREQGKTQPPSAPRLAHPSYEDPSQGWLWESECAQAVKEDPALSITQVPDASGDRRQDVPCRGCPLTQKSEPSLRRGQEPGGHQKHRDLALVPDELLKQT
GRID2IP-2, second PDZ domain of GRID2IP (human), sequence (A4D2P6 279-356): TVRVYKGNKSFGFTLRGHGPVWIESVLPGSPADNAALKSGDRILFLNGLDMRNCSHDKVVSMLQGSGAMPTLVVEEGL

Kd (PTEN_Ac (human)): 36 µM
Substance: DLG1-2 (from UniProt Q12959 319-405) (domain or fragment)

Kd (PTEN_11 (human)): 39 µM
Kd (PTEN_Ac (human)): 26 µM
Kd (PTEN_KR (human)): 32 µM
Substance: MAST1-1 (domain or fragment)

Kd (PTEN_11 (human)): 13 µM
Kd (PTEN_Ac (human)): 4 µM
Kd (PTEN_KR (human)): 7 µM
Substance: MAST2-1 (domain or fragment)

Kd (SNX27-1 (human)): 14 µM
Substance: PTEN_11 (from UniProt P60484 393-403) (peptide)

Kd [3]: 100 µM
Kd [4]: 82.1 µM
Kd [9]: 59.1 µM
Kd [10]: 25.3 µM
Kd [5]: 7.62 µM
Kd [11]: 1280 nM
Kd [6]: 123 µM
Kd [7]: 44.5 µM
Kd [8]: 7.95 µM
Substance: PTEN_13, 13-mer wild-type PDZ-binding motif peptide of PTEN

Kd [3]: 114 µM
Kd [4]: 47.4 µM
Kd [10]: 36.2 µM
Kd [5]: 9.11 µM
Kd [11]: 2390 nM
Kd [6]: 65.1 µM
Kd [7]: 24.4 µM
Kd [12]: 141 µM
Kd [8]: 8.32 µM
Substance: PTEN_KR, 11-mer PTEN PDZ-binding motif peptide with K402R

Kd (PTEN_Ac (human)): 10 µM
Substance: PTPN13-4 (from UniProt Q12923 1788-1868) (domain or fragment)

Kd (PTEN_13 (human)): 6 µM
Kd (PTEN_Ac (human)): 4 µM
Substance: SNX27-1 (domain or fragment)

Continued, substance first:

Substance: ARHGEF12-1, PDZ domain of ARHGEF12 (from UniProt Q9NZN5 1-1544) (domain or fragment)
Kd [1]: 3.96 µM

Substance: HTRA1-1, PDZ domain of HTRA1 (from UniProt Q92743 23-480) (domain or fragment)
Kd [1]: 64.8 µM

Substance: MAGI3-2 (from UniProt Q5TCQ9 410-492) (domain or fragment)
Kd (PTEN_Ac (human)): 39 µM

Substance: MAST1-1, PDZ domain of MAST1 (from UniProt Q9Y2H9 1-1570) (domain or fragment)
Kd [2]: 7.52 µM

Substance: MAST2-1, PDZ domain of MAST2 (from UniProt Q6P0Q8 1-1798) (domain or fragment)
Kd [1]: 6.87 µM

Substance: MAST3-1 (domain or fragment)
Kd (PTEN_11 (human)): 241 µM
Kd (PTEN_Ac (human)): 85 µM
Kd (PTEN_KR (human)): 82 µM

Substance: NHERF2-2 (from UniProt Q15599 150-230) (domain or fragment)
Kd (PTEN_11 (human)): 35 µM

Substance: PARD3-3 (from UniProt Q8TEW0 590-677) (domain or fragment)
Kd (PTEN_11 (human)): 160 µM

Substance: PTEN_11, 11-mer wild-type PDZ-binding motif peptide of PTEN
Kd [3]: 113 µM
Kd [4]: 131 µM
Kd [5]: 10.9 µM
Kd [6]: 194 µM
Kd [7]: 67 µM
Kd [8]: 13.8 µM

Substance: PTEN_13 (from UniProt P60484 391-403) (peptide)
Kd (MAST1-1 (human)): 8 µM
Kd (MAST2-1 (human)): 1000 nM

Substance: PTEN_Ac, 11-mer PTEN PDZ-binding motif peptide acetylated at K402
Kd [3]: 65.5 µM
Kd [4]: 70.2 µM
Kd [10]: 10.2 µM
Kd [5]: 7.4 µM
Kd [11]: 2560 nM
Kd [6]: 45.3 µM
Kd [7]: 14.5 µM
Kd [12]: 377 µM
Kd [8]: 4.07 µM

Substance: PTEN_KR (from UniProt P60484 393-403) (peptide)
Kd (SNX27-1 (human)): 8 µM

Substance: PTPN13-2 (from UniProt Q12923 1368-1452) (domain or fragment)
Kd (PTEN_11 (human)): 148 µM

Substance: SNTA1-1, PDZ domain of SNTA1 (from UniProt Q13424 1-505) (domain or fragment)
Kd [13]: 20.4 µM

Substance: SNTB1-1, PDZ domain of SNTB1 (from UniProt Q13884 1-538) (domain or fragment)
Kd [13]: 3.98 µM

Substance: SNTB2-1 (domain or fragment)
Kd (PTEN_13 (human)): 64 µM

Substance: SNTG2-1, PDZ domain of SNTG2 (from UniProt Q9NY99 1-539) (domain or fragment)
Kd [13]: 21.9 µM
